Data published in ChEMBL document CHEMBL2074325, “The multidrug resistance protein 5 functions as an ATP-dependent export pump for cyclic nucleotides” (J Biol Chem, 2000).

System: [H][C@@]12COP(=O)(O)O[C@@]1([H])[C@@H](O)[C@H](n1cnc3c(=O)[nH]c(N)nc31)O2
Assay: TP_TRANSPORTER: uptake in membrane vesicles from MRP5-expressing V79 cells
Assay type: functional, cell membranes, Membrane vesicle

How did the Km turn out when “ATP-binding cassette sub-family C member 5 (Homo sapiens)” was run?
The Km was 2.1 µM.
